B1: CPEB3 Ribozyme (parent)
chain: GGGGGCCACAGCAGAAGCGUUCACGUCGCGGCCCCUGUCAGAUUCUGGUGAAUCUGCGAAUUCUGCUGU

Variants of: B1
Test: self-cleavage, relative activity (ratio to wild type); higher = more cleavage; co-transcriptional

| Variant | self-cleavage |
| --- | --- |
| GGGGGUGACAGCAGAAGCGUUCACGUCGCGGCCCCUGUCAGAUUCUGGUGAAUCUGCGAAUUCUGCUGU [C6U C7G] | 0.198 |
| GGGGGUCACAGCAGAAGCGUUCACGUCGCGGCCCAUGUCAGAUUCUGGUGAAUCUGCGAAUUCUGCUGU [C6U C35A] | 0.189 |
| GGGGGUCACAGCAGAAGAGUUCACGUCGCGGCCCCUGUCAGAUUCUGGUGAAUCUGCGAAUUCUGCUGU [C6U C18A] | 0.119 |
| GGGGGUCACAGCAGAAGCGUUCACGUCGCGGCCCCUGUGAGAUUCUGGUGAAUCUGCGAAUUCUGCUGU [C6U C39G] | 0.899 |
| GGGGGUCACAGCAGAAGCGUUCACGUCGCGGCCCCUGUUAGAUUCUGGUGAAUCUGCGAAUUCUGCUGU [C6U C39U] | 0.955 |
| GGGGGUCACAGGAGAAGCGUUCACGUCGCGGCCCCUGUCAGAUUCUGGUGAAUCUGCGAAUUCUGCUGU [C6U C12G] | 0.726 |
| GGGGGUCACAGUAGAAGCGUUCACGUCGCGGCCCCUGUCAGAUUCUGGUGAAUCUGCGAAUUCUGCUGU [C6U C12U] | 0.987 |
| GGGGGUCACAGAAGAAGCGUUCACGUCGCGGCCCCUGUCAGAUUCUGGUGAAUCUGCGAAUUCUGCUGU [C6U C12A] | 0.676 |
| GGGGGUCACAGCAGAAGCGUUCACGUCGCGGUCCCUGUCAGAUUCUGGUGAAUCUGCGAAUUCUGCUGU [C6U C32U] | 0.826 |
| GGGGGUCACAGCAGAAGCGUUCACGUCGCGGGCCCUGUCAGAUUCUGGUGAAUCUGCGAAUUCUGCUGU [C6U C32G] | 0.246 |
| GGGGGUCACAGCAGAAGCGUUCACGUCGCGGCCCCUGUCAGAUUCUGGUGAAUCUGCGAAUUGUGCUGU [C6U C63G] | 0.808 |
| GGGGGUCACAGCAGAAGCGUUCACGUCGCGGCCCCUGUCAGAUUCUGGUGAAUCUGCGAAUUUUGCUGU [C6U C63U] | 1.01 |
| GGGGGUCACAGCAGAAGCGUUCACGUCGCGGCCCCUGUCAGAUUCUGGUGACUCUGCGAAUUCUGCUGU [C6U A52C] | 0.956 |
| GGGGGUCACAGCAGAAGCGUUCACGUCGCGGCCCCUGUCAGAUUCUGGUGAUUCUGCGAAUUCUGCUGU [C6U A52U] | 0.996 |
| GGGGGUCACAGCAGAAGCGUUCACGUCGCGGCCCCUUUCAGAUUCUGGUGAAUCUGCGAAUUCUGCUGU [C6U G37U] | 0.169 |
| GGGGGUCACAGCAGAAGCGUUCACGUCGCGGCCCCUAUCAGAUUCUGGUGAAUCUGCGAAUUCUGCUGU [C6U G37A] | 0.22 |
| GGGGGUCACAGCAGAAGCGUUCACGUCGCGGCCCCUCUCAGAUUCUGGUGAAUCUGCGAAUUCUGCUGU [C6U G37C] | 0.154 |
| GGGGGUCACAGCAGAAGCGUUCACGUCGCGGCCCCUGUCAGAUUCUGGUGAAUGUGCGAAUUCUGCUGU [C6U C54G] | 0.733 |
| GGGGGUCACAGCAGAAGCGUUCACGUCGCGGCCCCUGUCAGAUUCUGGUGAAUAUGCGAAUUCUGCUGU [C6U C54A] | 0.847 |
| GGGGGUCACAGCAGAAACGUUCACGUCGCGGCCCCUGUCAGAUUCUGGUGAAUCUGCGAAUUCUGCUGU [C6U G17A] | 0.315 |

| Variant | self-cleavage |
| --- | --- |
| GGGGGUCACAGCAGAACCGUUCACGUCGCGGCCCCUGUCAGAUUCUGGUGAAUCUGCGAAUUCUGCUGU [C6U G17C] | 0.0825 |
| GGGGGUCACAGCCGAAGCGUUCACGUCGCGGCCCCUGUCAGAUUCUGGUGAAUCUGCGAAUUCUGCUGU [C6U A13C] | 0.85 |
| GGGGGUCACAGCAGAAGCGUUCACGUCGCGUCCCCUGUCAGAUUCUGGUGAAUCUGCGAAUUCUGCUGU [C6U G31U] | 0.914 |
| GGGGGUCACAGCAGAAGCGUUCACGUCGCGCCCCCUGUCAGAUUCUGGUGAAUCUGCGAAUUCUGCUGU [C6U G31C] | 0.536 |
| GGGGGUCACAGCAGAAGCGUUCACGUCGCGGCCCCUGUCAGAUUAUGGUGAAUCUGCGAAUUCUGCUGU [C6U C45A] | 1.02 |
| GGGGGUCACAGCAGAAGCGUUCACGUCGCGGCCCCUGUCAGAUUUUGGUGAAUCUGCGAAUUCUGCUGU [C6U C45U] | 1 |
| GGGGGUCACAGCAGAAGCGUUCACGUCGCGGCCCCUGUCAGAUUGUGGUGAAUCUGCGAAUUCUGCUGU [C6U C45G] | 1.02 |
| GGGGGUCACAGCAGAAGCGUUCACGUCGCGGCCCCUGUCAGAUUCUGGUGCAUCUGCGAAUUCUGCUGU [C6U A51C] | 0.905 |
| GGGGGUCACUGCAGAAGCGUUCACGUCGCGGCCCCUGUCAGAUUCUGGUGAAUCUGCGAAUUCUGCUGU [C6U A10U] | 0.999 |
| GGGGGUCACAGCAGAAGCGUUCACGUCGCGGCCCCUGUCACAUUCUGGUGAAUCUGCGAAUUCUGCUGU [C6U G41C] | 0.708 |
| GGGGGUCACAGCAGAAGCGUUCACGUCGCGGCCCCUGUCAAAUUCUGGUGAAUCUGCGAAUUCUGCUGU [C6U G41A] | 0.815 |
| GGGGGUCACAGCAGGAGCGUUCACGUCGCGGCCCCUGUCAGAUUCUGGUGAAUCUGCGAAUUCUGCUGU [C6U A15G] | 0.981 |
| GGGGGUCACAGCAGCAGCGUUCACGUCGCGGCCCCUGUCAGAUUCUGGUGAAUCUGCGAAUUCUGCUGU [C6U A15C] | 0.802 |
| GGGGGUCACAGCAGAAGCGUUCACGUCGCCGCCCCUGUCAGAUUCUGGUGAAUCUGCGAAUUCUGCUGU [C6U G30C] | 0.348 |
| GGGGGUCACAGCAGAAGCGUUCACGUCGCAGCCCCUGUCAGAUUCUGGUGAAUCUGCGAAUUCUGCUGU [C6U G30A] | 0.632 |
| GGGGGUCACAGCAGAAGCGUUCACGUCGCUGCCCCUGUCAGAUUCUGGUGAAUCUGCGAAUUCUGCUGU [C6U G30U] | 0.235 |
| GGGGGUCAUAGCAGAAGCGUUCACGUCGCGGCCCCUGUCAGAUUCUGGUGAAUCUGCGAAUUCUGCUGU [C6U C9U] | 1.05 |
| GGGGGUCAAAGCAGAAGCGUUCACGUCGCGGCCCCUGUCAGAUUCUGGUGAAUCUGCGAAUUCUGCUGU [C6U C9A] | 1.03 |
| GGGGGUCAGAGCAGAAGCGUUCACGUCGCGGCCCCUGUCAGAUUCUGGUGAAUCUGCGAAUUCUGCUGU [C6U C9G] | 1.02 |

From the RNAGym collection of RNA variant scans (doi:10.7554/elife.80360)
